In the RNAGym collection of RNA variant scans (doi:10.1073/pnas.2313332121):

B1: TPR t1 (parent)
chain: GACCAAUCUGCCCUCAGAGCUCGAGAACAUCUUCGGAUGCAGAGGAGGCAGGCUUCGGUGGCGCGAUAGCGCCAACGUCCUCAACCUCCAAUGCAUCCCACCACAUGAUGAUGCCUGAAGAGCCUUGGUUUUUUG

Variants of: B1
Assay: polymerase ribozyme fitness, log enrichment relative to wild type (log ratio); higher = more active; in vitro selection for triplet polymerase activity
Summary of the method: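 Fitness is a logarithmic measure of how a genotype enriched relative to the wild type, with replicate averages weighted by inverse variance. The logarithm uses base 2, and enrichment came from Illumina sequencing of input and output libraries. Those libraries were PCR-built, transcribed mutants of each subunit of a heterodimeric triplet polymerase ribozyme, passed through one triplicate in vitro selection round that included frozen incubation at −7 °C, gel excision of extended constructs and streptavidin-bead capture. Genotypes were kept only if they had ≥10 input reads and ≥1 read per output.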
For GACCAAUCUGCCCUCAGAGCUCGAGAACAUCUUCGGAUGCAGAGGAGGCAGGCUUCGGUGGCGCGAUAGCGGCAACGUCCUCAACCGCCAAUGCAUCCCACCACAUGAUGAUGCCUAAAGAGCCUUGGUUUUUUG, the “polymerase ribozyme fitness (log ratio)” value was -2.09. For GACCAAUCUGCCCUCAGAGCUCGAGAACAUCUUCGGAUGCAGAGGAGGCAGGCUUCGGUGGCGCGAUAGCGGCAACGUCCUCAACCUCCAAUGCAUCCCACCACAUGAUGAUGCCUGAAGAGCCUGGGUUUUUUG, the “polymerase ribozyme fitness (log ratio)” value was -2.09. In the case of GACCAAUCUGCCCUCAGAGCUCGAGAACAUCUUCGGAUGCAGAGGAGGCAGGCUUCGGUGGCGCGAUAGCGGCAACGUCCUCAACCUCCAAUGCAUCCCACCACAUGAUGAUGCCUGAAGAGCCUUCGUUUUUUG, the “polymerase ribozyme fitness (log ratio)” value is reported as -0.368. In the case of GACCAAUCUGCCCUCAGAGCUCGAGAACAUCUUCGGAUGCAGAGGAGGCAGGCUUCGGUGGCGCGAUAGCGGCAACGUCCUCAACCUCCAAUGCAUCCCACCACAUGAUGAUGCCUGAAGAGCCUUAGUUUUUUG, the “polymerase ribozyme fitness (log ratio)” value is reported as -1.26. With GACCAAUCUGCCCUCAGAGCUCGAGAACAUCUUCGGAUGCAGAGGAGGCAGGCUUCGGUGGCGCGAUAGCGUCAACGUCCUCAACCUCCAAUGCAUCCCACCACAUGAUGAUGCCUGCAGAGCCUUGGUUUUUUG the “polymerase ribozyme fitness (log ratio)” value was -2.89. In the case of GACCAAUCUGCCCUCAGAGCUCGAGAACAUCUUCGGAUGCAGAGGAGGCAGGCUUCGGUGGCGCGAUAGCGUCAACGUCCUCAACCUCCAAUGCAUCCCACCACAUGAUGAUGCCUGAAGAGCCUUGGUUUUUUG, the “polymerase ribozyme fitness (log ratio)” value is reported as -0.393. With GACCAAUCUGCCCUCAGAGCUCGAGAACAUCUUCGGAUGCAGAGGAGGCAGGCUUCGGUGGCGCGAUAGCGUCUACGUCCUCAACCUCCAAUGCAUCCCACCACAAGAUGAUGCCUGAAGAGCCUUAGUUUUUUG the “polymerase ribozyme fitness (log ratio)” value was -1.68. With GACCAAUCUGCCCUCAGAGCUCGAGAACAUCUUCGGAUGCAGAGGAGGCAGGCUUCGGUGGCGCGAUAGCGGCAACGUCCUCAACCUCCAAUGCAUCCCACCACAUGAUGAUGCCUUAAGUGCCUUAGUUUUUUG the “polymerase ribozyme fitness (log ratio)” value was -3.25. With GACCAAUCUGCCCUCAGAGCUCGAGAACAUCUUCGGAUGCAGAGGAGGCAGGCUUCGGUGGCGCGAUAGCGGCAACGUCCUCAACCUCCAAUGCAUCCCACCACAUAAUGAUGCCUGAAGAGCCUUGGUUUUUUG the “polymerase ribozyme fitness (log ratio)” value was -4.9. With GACCAAUCUGCCCUCAGAGCUCGAGAACAUCUUCGGAUGCAGAGGAGGCAGGCUUCGGUGGCGCGAUAGCGGCAACGUCCCCAACCUCCAAUGCAUCCCAUCACAUGAUGAUGCCUGAAGAGCCUUGGUUUUUUG the “polymerase ribozyme fitness (log ratio)” value was -0.875. For GACCAAUCUGCCCUCAGAGCUCGAGAACAUCUUCGGAUGCAGAGGAGGCAGGCUUCGGUGGCGCGAUAGCGUCAACGUCCUCAACCUCCAGUGCAUCCCACCAAAUGAUGAUGCCUGAAGAGCCUUCGUUUUUUG, the “polymerase ribozyme fitness (log ratio)” value was -4.76. With GACCAAUCUGCCCUCAGAGCUCGAGAACAUCUUCGGAUGCAGAGGAGGCAGGCUUCGGUGGCGCGAUAGCGGCAACGUCCUCAACCUCCAAUGCAUCCCACCACAUGAUGAUGACUGAAGAGCCUUGGUCUUGUG the “polymerase ribozyme fitness (log ratio)” value was -1.37. For GACCAAUCUGCCCUCAGAGCUCGAGAACAUCUUCGGAUGCAGAGGAGGCAGGCUUCGGUGGCGCGAUAGCGGCAACGUCCUCAACCUCCAAUGCAUCCCACCACAUGAUGAUGCCUCAUGAGCCUUGGUUUUUUG, the “polymerase ribozyme fitness (log ratio)” value was -0.356. For GACCAAUCUGCCCUCAGAGCUCGAGAACAUCUUCGGAUGCAGAGGAGGCAGGCUUCGGUGGCGCGAUAGCGGCAACGUCCGCAACCUCCAAUGCAUUCCACCACAUGAUGAUGCCUGAAGAGCCUUGGUUUUUUG, the “polymerase ribozyme fitness (log ratio)” value was -4.63. With GACCAAUCUGCCCUCAGAGCUCGAGAACAUCUUCGGAUGCAGAGGAGGCAGGCUUCGGUGGCGCGAUAGCGUCAACGUCCUCAACCUCCAAUGCAUCCCACCACGUGAUGAUGCCUGAAGAGCCUUGGUUUUUUG the “polymerase ribozyme fitness (log ratio)” value was -3.04. With GACCAAUCUGCCCUCAGAGCUCGAGAACAUCUUCGGAUGCAGAGGAGGCAGGCUUCGGUGGCGCGAUAGCGGCAACGUCCUCAACCUCCAAUGCAUCCCACCACAUGAUGAUGCCUGAAGAGCCUUGGUUGUUUG the “polymerase ribozyme fitness (log ratio)” value was -0.31. With GACCAAUCUGCCCUCAGAGCUCGAGAACAUCUUCGGAUGCAGAGGAGGCAGGCUUCGGUGGCGCGAUAGCGUCACCGUCCUCAACCUCCAAUGCAUCCCACCACAUGAUGAUGCCUGUAUAGCCUUGGUUUUUUG the “polymerase ribozyme fitness (log ratio)” value was -0.721. In the case of GACCAAUCUGCCCUCAGAGCUCGAGAACAUCUUCGGAUGCAGAGGAGGCAGGCUUCGGUGGCGCGAUAGCGGCAACGUCCUCAACCUCCAAUGCAUCCCACUACAGGAUGAUGCCUGAAGAGCCUUGGUUUUUUG, the “polymerase ribozyme fitness (log ratio)” value is reported as -4.73. In the case of GACCAAUCUGCCCUCAGAGCUCGAGAACAUCUUCGGAUGCAGAGGAGGCAGGCUUCGGUGGCGCGAUAGCGGCAACUUCCUCAAUCUCCAAUGCAUCCCACCACAAGAAGAUGCCUGAAGAGCCUUGGUUUUUUG, the “polymerase ribozyme fitness (log ratio)” value is reported as -7.01. For GACCAAUCUGCCCUCAGAGCUCGAGAACAUCUUCGGAUGCAGAGGAGGCAGGCUUCGGUGGCGCGAUAGCGUCAACGUCCUCUACCUCCAAUGCAUCUCACCACAUGAUGAUGCCUGAAGAGCCUUGGUUUUUUG, the “polymerase ribozyme fitness (log ratio)” value was -0.271. For GACCAAUCUGCCCUCAGAGCUCGAGAACAUCUUCGGAUGCAGAGGAGGCAGGCUUCGGUGGCGCGAUAGCGUCAACGUCCUCAACCUCCAUUGCAUCCCUCCACAUGAUGAUGCCUGAUGAGCCUUGGUUUUUUG, the “polymerase ribozyme fitness (log ratio)” value was -3.58. With GACCAAUCUGCCCUCAGAGCUCGAGAACAUCUUCGGAUGCAGAGGAGGCAGGCUUCGGUGGCGCGAUAGCGUCAACGUCCUCAACCUCCAAUGCAUCCCACCACAUGAUGAUGCCUGAUGAGCCUUGGUUUUUUG the “polymerase ribozyme fitness (log ratio)” value was -0.327. With GACCAAUCUGCCCUCAGAGCUCGAGAACAUCUUCGGAUGCAGAGGAGGCAGGCUUCGGUGGCGCGAUAGCGUCAACGUCCUCCACCUCCAAUGCAUCCCACCACAUGAUGAUGCGUGAAGAGCCUUGGUUUUUUG the “polymerase ribozyme fitness (log ratio)” value was -1.78. In the case of GACCAAUCUGCCCUCAGAGCUCGAGAACAUCUUCGGAUGCAGAGGAGGCAGGCUUCGGUGGCGCGAUAGCGGCAACGUCCUCAACCUCCAAUGCAUCCCACCACAUGAUGAUCUGUGAAGAGCUUUGGUUUUUUG, the “polymerase ribozyme fitness (log ratio)” value is reported as -4.29. In the case of GACCAAUCUGCCCUCAGAGCUCGAGAACAUCUUCGGAUGCAGAGGAGGCAGGCUUCGGUGGCGCGAUAGCGGCAACGUCCUCAACCACCAAUGCAUCCCACCACAUGAUGAUGCCUGAAGAGCCUUGGUUUUUUG, the “polymerase ribozyme fitness (log ratio)” value is reported as -2.08. In the case of GACCAAUCUGCCCUCAGAGCUCGAGAACAUCUUCGGAUGCAGAGGAGGCAGGCUUCGGUGGCGCGAUAGCGGCAACGUCCAGAACCUCCAAUGCAUCCCACCACAUGAUGAUGCCUGAAGAGCCUUGCUUUUUUG, the “polymerase ribozyme fitness (log ratio)” value is reported as -4.54. For GACCAAUCUGCCCUCAGAGCUCGAGAACAUCUUCGGAUGCAGAGGAGGCAGGCUUCGGUGGCGCGAUAGCGUCAACGUCCUCAACCUCCACUUCAUCCCACCACAUGAUGAUGCCUGAAGAGCCUGGGUUUUUUG, the “polymerase ribozyme fitness (log ratio)” value was -4.23. In the case of GACCAAUCUGCCCUCAGAGCUCGAGAACAUCUUCGGAUGCAGAGGAGGCAGGCUUCGGUGGCGCGAUAGCGGCAACGUCCUCAACCUCCAAUGCAUCCCACCACAUGAUGAAGCCUGAAGAGCCUUGGAUUUUUG, the “polymerase ribozyme fitness (log ratio)” value is reported as 0.0162. With GACCAAUCUGCCCUCAGAGCUCGAGAACAUCUUCGGAUGCAGAGGAGGCAGGCUUCGGUGGCGCGAUAGCGGCAACGUCCUCAACCUCCAAUGCAUCCCACCACAAGAUGAUGCCUGAAGAGCCUUGGUUUUUUG the “polymerase ribozyme fitness (log ratio)” value was -0.511. For GACCAAUCUGCCCUCAGAGCUCGAGAACAUCUUCGGAUGCAGAGGAGGCAGGCUUCGGUGGCGCGAUAGCGGCAACGUCCUCAACCUCCAAUGCAUCCCACCACAUGAUGAUGCCUGAAGAGUCUUGGUUUUUUG, the “polymerase ribozyme fitness (log ratio)” value was 0.62. In the case of GACCAAUCUGCCCUCAGAGCUCGAGAACAUCUUCGGAUGCAGAGGAGGCAGGCUUCGGUGGCGCGAUAGCGGCAACGCCCUCAACCUCCAAUGCAUCCCACCACAUGAAGAUGCCUGAAGAGCCUUGGUUUUUUG, the “polymerase ribozyme fitness (log ratio)” value is reported as -6.55. With GACCAAUCUGCCCUCAGAGCUCGAGAACAUCUUCGGAUGCAGAGGAGGCAGGCUUCGGUGGCGCGAUAGCGGCAACGUCCUCAACCUCCAAUGCAUCCCACCACAUGAUGAUGCCUCAAGAGCCUUGGUGUUUUG the “polymerase ribozyme fitness (log ratio)” value was -4.4. For GACCAAUCUGCCCUCAGAGCUCGAGAACAUCUUCGGAUGCAGAGGAGGCAGGCUUCGGUGGCGCGAUAGCGUUAACGUCCUCAACCUUCAAUGCAUCCCACCACAUGAUGAUUCCUGAAGAGCCAUGGUUUUUUG, the “polymerase ribozyme fitness (log ratio)” value was -5.18. With GACCAAUCUGCCCUCAGAGCUCGAGAACAUCUUCGGAUGCAGAGGAGGCAGGCUUCGGUGGCGCGAUAGCGGCAACGUCCUCAACCUCCAAUGCAUCCCACCACAUGAUGAUGCCUGAAGAGCUUUGGUUUUUUG the “polymerase ribozyme fitness (log ratio)” value was 1.15. With GACCAAUCUGCCCUCAGAGCUCGAGAACAUCUUCGGAUGCAGAGGAGGCAGGCUUCGGUGGCGCGAUAGCGGCAACGUCCUCAACCUCCAAUGCAUCCCACCACAUGAUGAUGCCUUAAGAGCCUUGGUUUUUUG the “polymerase ribozyme fitness (log ratio)” value was -2.41. For GACCAAUCUGCCCUCAGAGCUCGAGAACAUCUUCGGAUGCAGAGGAGGCAGGCUUCGGUGGCGCGAUAGCGGCAACGUCCUCAACCUCCAAUGCAUCCCACCACAUGAUGAUGCCUAAAGAGCCUUGGUUUUUUG, the “polymerase ribozyme fitness (log ratio)” value was -1.8. With GACCAAUCUGCCCUCAGAGCUCGAGAACAUCUUCGGAUGCAGAGGAGGCAGGCUUCGGUGGCGCGAUAGCGGCAACGUCCUCAACCUCCAAUGCAUCCCACCACAUGAUGAUGCCUGAAGAGCCGUGGUUUUUUG the “polymerase ribozyme fitness (log ratio)” value was -1.12. For GACCAAUCUGCCCUCAGAGCUCGAGAACAUCUUCGGAUGCAGAGGAGGCAGGCUUCGGUGGCGCGAUAGCGGCAACGUCCUCAACCUCCAACGCAUCCCACCACAUGAUGAUGCCUGAAGAGCCUUGGUUUUUUG, the “polymerase ribozyme fitness (log ratio)” value was -1.36. With GACCAAUCUGCCCUCAGAGCUCGAGAACAUCUUCGGAUGCAGAGGAGGCAGGCUUCGGUGGCGCGAUAGCGUCAACGUCCUCAACCUCCAAUGCCUCCCACCACAUGAUGAUGCCUGAAGAGCCUUGGUUUUUUG the “polymerase ribozyme fitness (log ratio)” value was -0.818. In the case of GACCAAUCUGCCCUCAGAGCUCGAGAACAUCUUCGGAUGCAGAGGAGGCAGGCUUCGGUGGCGCGAUAGCGGCAACGUCCUCAACCUCCAAUACAUCCCACCACAUGAUGAUGCCUGAAGAGCCUUGGUUUUUUG, the “polymerase ribozyme fitness (log ratio)” value is reported as -0.585. For GACCAAUCUGCCCUCAGAGCUCGAGAACAUCUUCGGAUGCAGAGGAGGCAGGCUUCGGUGGCGCGAUAGCGGCAACGUCCUCAACCUCCAAUGCAUCCCACCACAUGAUGAUGUCUGAAGAGCCUUGGUUUUUUG, the “polymerase ribozyme fitness (log ratio)” value was -2.37. In the case of GACCAAUCUGCCCUCAGAGCUCGAGAACAUCUUCGGAUGCAGAGGAGGCAGGCUUCGGUGGCGCGAUAGCGUCAUCGUCCUCAACCUCCAAUGCAUCCCACCACAUGAUGAUGACUGAAGACCCUUGGUUUUUUG, the “polymerase ribozyme fitness (log ratio)” value is reported as -2.52.
